Data published in ChEMBL document CHEMBL2074311, “ATP-dependent para-aminohippurate transport by apical multidrug resistance protein MRP2” (Kidney Int, 2000).

B1: Multidrug resistance-associated protein 1 (Homo sapiens) (protein)
chain: MALRGFCSADGSDPLWDWNVTWNTSNPDFTKCFQNTVLVWVPCFYLWACFPFYFLYLSRHDRGYIQMTPLNKTKTALGFLLWIVCWADLFYSFWERSRGIFLAPVFLVSPTLLGITMLLATFLIQLERRKGVQSSGIMLTFWLVALVCALAILRSKIMTALKEDAQVDLFRDITFYVYFSLLLIQLVLSCFSDRSPLFSETIHDPNPCPESSASFLSRITFWWITGLIVRGYRQPLEGSDLWSLNKEDTSEQVVPVLVKNWKKECAKTRKQPVKVVYSSKDPAQPKESSKVDANEEVEALIVKSPQKEWNPSLFKVLYKTFGPYFLMSFFFKAIHDLMMFSGPQILKLLIKFVNDTKAPDWQGYFYTVLLFVTACLQTLVLHQYFHICFVSGMRIKTAVIGAVYRKALVITNSARKSSTVGEIVNLMSVDAQRFMDLATYINMIWSAPLQVILALYLLWLNLGPSVLAGVAVMVLMVPVNAVMAMKTKTYQVAHMKSKDNRIKLMNEILNGIKVLKLYAWELAFKDKVLAIRQEELKVLKKSAYLSAVGTFTWVCTPFLVALCTFAVYVTIDENNILDAQTAFVSLALFNILRFPLNILPMVISSIVQASVSLKRLRIFLSHEELEPDSIERRPVKDGGGTNSITVRNATFTWARSDPPTLNGITFSIPEGALVAVVGQVGCGKSSLLSALLAEMDKVEGHVAIKGSVAYVPQQAWIQNDSLRENILFGCQLEEPYYRSVIQACALLPDLEILPSGDRTEIGEKGVNLSGGQKQRVSLARAVYSNADIYLFDDPLSAVDAHVGKHIFENVIGPKGMLKNKTRILVTHSMSYLPQVDVIIVMSGGKISEMGSYQELLARDGAFAEFLRTYASTEQEQDAEENGVTGVSGPGKEAKQMENGMLVTDSAGKQLQRQLSSSSSYSGDISRHHNSTAELQKAEAKKEETWKLMEADKAQTGQVKLSVYWDYMKAIGLFISFLSIFLFMCNHVSALASNYWLSLWTDDPIVNGTQEHTKVRLSVYGALGISQGIAVFGYSMAVSIGGILASRCLHVDLLHSILRSPMSFFERTPSGNLVNRFSKELDTVDSMIPEVIKMFMGSLFNVIGACIVILLATPIAAIIIPPLGLIYFFVQRFYVASSRQLKRLESVSRSPVYSHFNETLLGVSVIRAFEEQERFIHQSDLKVDENQKAYYPSIVANRWLAVRLECVGNCIVLFAALFAVISRHSLSAGLVGLSVSYSLQVTTYLNWLVRMSSEMETNIVAVERLKEYSETEKEAPWQIQETAPPSSWPQVGRVEFRNYCLRYREDLDFVLRHINVTINGGEKVGIVGRTGAGKSSLTLGLFRINESAEGEIIIDGINIAKIGLHDLRFKITIIPQDPVLFSGSLRMNLDPFSQYSDEEVWTSLELAHLKDFVSALPDKLDHECAEGGENLSVGQRQLVCLARALLRKTKILVLDEATAAVDLETDDLIQSTIRTQFEDCTVLTIAHRLNTIMDYTRVIVLDKGEIQEYGAPSDLLQQRGLFYSMAKDAGLV
B2: ATP-binding cassette sub-family C member 2 (Homo sapiens) (protein)
chain: MLEKFCNSTFWNSSFLDSPEADLPLCFEQTVLVWIPLGYLWLLAPWQLLHVYKSRTKRSSTTKLYLAKQVFVGFLLILAAIELALVLTEDSGQATVPAVRYTNPSLYLGTWLLVLLIQYSRQWCVQKNSWFLSLFWILSILCGTFQFQTLIRTLLQGDNSNLAYSCLFFISYGFQILILIFSAFSENNESSNNPSSIASFLSSITYSWYDSIILKGYKRPLTLEDVWEVDEEMKTKTLVSKFETHMKRELQKARRALQRRQEKSSQQNSGARLPGLNKNQSQSQDALVLEDVEKKKKKSGTKKDVPKSWLMKALFKTFYMVLLKSFLLKLVNDIFTFVSPQLLKLLISFASDRDTYLWIGYLCAILLFTAALIQSFCLQCYFQLCFKLGVKVRTAIMASVYKKALTLSNLARKEYTVGETVNLMSVDAQKLMDVTNFMHMLWSSVLQIVLSIFFLWRELGPSVLAGVGVMVLVIPINAILSTKSKTIQVKNMKNKDKRLKIMNEILSGIKILKYFAWEPSFRDQVQNLRKKELKNLLAFSQLQCVVIFVFQLTPVLVSVVTFSVYVLVDSNNILDAQKAFTSITLFNILRFPLSMLPMMISSMLQASVSTERLEKYLGGDDLDTSAIRHDCNFDKAMQFSEASFTWEHDSEATVRDVNLDIMAGQLVAVIGPVGSGKSSLISAMLGEMENVHGHITIKGTTAYVPQQSWIQNGTIKDNILFGTEFNEKRYQQVLEACALLPDLEMLPGGDLAEIGEKGINLSGGQKQRISLARATYQNLDIYLLDDPLSAVDAHVGKHIFNKVLGPNGLLKGKTRLLVTHSMHFLPQVDEIVVLGNGTIVEKGSYSALLAKKGEFAKNLKTFLRHTGPEEEATVHDGSEEEDDDYGLISSVEEIPEDAASITMRRENSFRRTLSRSSRSNGRHLKSLRNSLKTRNVNSLKEDEELVKGQKLIKKEFIETGKVKFSIYLEYLQAIGLFSIFFIILAFVMNSVAFIGSNLWLSAWTSDSKIFNSTDYPASQRDMRVGVYGALGLAQGIFVFIAHFWSAFGFVHASNILHKQLLNNILRAPMRFFDTTPTGRIVNRFAGDISTVDDTLPQSLRSWITCFLGIISTLVMICMATPVFTIIVIPLGIIYVSVQMFYVSTSRQLRRLDSVTRSPIYSHFSETVSGLPVIRAFEHQQRFLKHNEVRIDTNQKCVFSWITSNRWLAIRLELVGNLTVFFSALMMVIYRDTLSGDTVGFVLSNALNITQTLNWLVRMTSEIETNIVAVERITEYTKVENEAPWVTDKRPPPDWPSKGKIQFNNYQVRYRPELDLVLRGITCDIGSMEKIGVVGRTGAGKSSLTNCLFRILEAAGGQIIIDGVDIASIGLHDLREKLTIIPQDPILFSGSLRMNLDPFNNYSDEEIWKALELAHLKSFVASLQLGLSHEVTEAGGNLSIGQRQLLCLGRALLRKSKILVLDEATAAVDLETDNLIQTTIQNEFAHCTVITIAHRLHTIMDSDKVMVLDNGKIIECGSPEELLQIPGPFYFMAKEAGIENVNSTKF

Columns and labels:
[1] = substrate: Nc1ccc(C(=O)NCC(=O)O)cc1; assay: TP_TRANSPORTER: uptake in membrane vesicle from MRP1-expressing HeLa cells; format: functional, cell membranes
[2] = substrate: Nc1ccc(C(=O)NCC(=O)O)cc1; assay: TP_TRANSPORTER: uptake in membrane vesicles from MRP2-expressing HEK cells; format: functional, cell membranes, HEK293, Membrane vesicle

Protein	Km [1] [µM]	Km [2] [µM]
B1	372	–
B2	–	880
